The source of these data is the DeepSol protein solubility set.

This data set can be described thus: soluble on expression in E. coli; label from the status in PepcDB or PDB records.
Take “MSLNKESLKEYLSSRYQGWSSFLNNVIFPIFGEDDFEDGFETELLESQPERRQLAEATGIRSIKQVGMMYVGVEPLQIFDVTVSDRVMMEHNRVNIQRLIRAVMDQFSCAFMLFHYEDDTRWDWRFTYCRKSGNKEESTDSKRYTFLLGPGQSCRTATDNFIALYDKRNSLEIKDIENAFNVEALSKEFFGKYKAQYEAFVNYMVDPTNGMRQHFIDTGFDHTGMAADKIRDREEKPIRDYVKKLLGRIVFLHFLQKKGWLGVPASKEWGEGDRDFMLNIFKNANERQKENFLDDILEDLFTEGLDRNRSDQGDLYDTKVEGFRNCRIPYLNGGLFERDILDKKPSHFPASYFNGLLTMLSQYNFTIDENDPNDAEVGVDPEMLGRIFENLLEDNKDKGAFYTPKEIVQYMCRESLIAYLQTDMREEDKECIRQFVTTHDASQLGELKEYIDQKLYDVKICDPAIGSGAFPMGLLRELFFCRSAIEPNIVENAANIKRHIIQNNIYGVDIERGAVDIARLRFWLSLIVDEKSPEALPNLDFKIMQGNSLLEQYKGVDLSTEGHHHHHH”: the “soluble on expression in E. coli” value is recorded as “soluble”.

Take “AIATLLDWMNVCSVEIPKRIIAKHFSACQHTNQEVFSLDDSLAGLDECLHCEDSQQNHRKVSPGQTLRIVMIGKTGVGKSAVGNTILNREVFESKPSANSITQSCRKASVYDTREIYVIDTPGILDTSKEKDIIKREIVKCIKVSAPGPHAFLLVIQIGRFTAEEQRAVQALQELFGEDASNYMIVLFTHGDLLKGQTIDQYVREGHIELRRVIQSCGGRYAVFNNTMKDRTQVKTLIDKIDQMVAVNGGECYTQEMFREAEEKIRQQKEKREIAELQEYQFSFLGILENRVTLFQRILLEGYREQFAIESGIYK”: the “soluble on expression in E. coli” value is “soluble”.

With “DERLLAREVQKMRFRRSTYSSPQPATQQPANGSERKNDSDNLVGAENHSAETPTDNRSAEVEQPYYPAKYEEELLRLIIRYGERKLLIYRHEEGAEKQTPSEVALAYYIKSDLNADGVDIGTDVFRQILDEAAEQSFDSGFVAAKYFRDHPNAQISHIAVELLTNRYALSRIHYGKGDESNAEEDLQMRVERELLTIKNVFIQVQIRALQKEIAQAQKAGDIELQLEIMNELRSMNEMKSELAHRLGDRTVLP”, the “soluble on expression in E. coli” value is on record as “not soluble”.

“SMGNPQLISAGAKFRAAVAAEQPLQVVGAITAYAAKMAEAVGFKAVYLSGGGVAANSLGIPDLGISTMDDVLVDANRITNATNLPLLVDIDTGWGGAFNIARTIRSFIKAGVGAVHLEDQVGQKRCGHRPGKECVPAGEMVDRIKAAVDARTDETFVIMARTDAAAAEGIDAAIERAIAYVEAGADMIFPEAMKTLDDYRRFKEAVKVPILANLTEFGSTPLFTLDELKGANVDIALYCCGAYRAMNKAALNFYETVRRDGTQKAAVPTMQTRAQLYDYLGYYAYEEKLDQLFNQGRN”: the “soluble on expression in E. coli” value is given as “soluble”.

On to “MALKKAMLLIKNGKILTMTGVNYDSGSVLIDNGKIIKVGENIDVDESCEIIDADGFWVMPGIIEAHCHVGIQEEKRGFEGNDCNEMTNPVTPYLRALDGINPMDSAFYTALTAGITGIMVGPGSANVVGGQWMFLKTYGRAIDKMVVLQPSAMKIAFGENPKANYDKKNMMPSTRIAIAAMLREELFEAQQYYEKRKNAEKSGDSFNKEFRKECWVPVFDKKIPLKAHVHRADDILTAIRIAKEFNLNLTLDHCTEGHLVAKEIKESGFPAIVGPTLTSRNKIETQYADFKTAGILHNEGVKVAITTNHPVTRIQDLLICAGLAAKEGLGIEEGLKAITINPAEICNVANRVGSIEVNKDADIAIFDGNPMETFTKTMYTIINGEIVYSLKDKNYEGHHHHHH”, for which the “soluble on expression in E. coli” value is reported as “soluble”.

Take “MATSRFQAFLNSPIGPKTTHFWGPIANWGFVAAGLVDMQKPPEMISGNMSSAMCVYSALFMRFAWMVQPRNYLLLACHASNETVQLYQLSRWARAQGYLSSKKEEEKPSQ”: the “soluble on expression in E. coli” value is given as “not soluble”.

Take “MATFKDFRNSVKPNWCPGCGDFSVQAAIQRAAANVGLNPDELAVISGIGCSGRISGYINSYGVHSIHGRALPIAQGVKMANRDLTVIASGGDGDGFAIGMGHTIHSIRRNIDITYIVMDNQIYGLTKGQTSPRSEAGFKTKSTPQGSIEPSLNVMEMALTAGATFVAQSFSSDLKELTQIIEAGINHKGFSLINVFSPCVTYNKVNTYDWFKENLTKLSTVEGYDPSNRMMAMQTLMENNGLVTGLIYQNTKQPSYQELVKGYSEEPLVKSDLNMDQKMFDELVAEFM”: the “soluble on expression in E. coli” value is “not soluble”.
